Values of other authors as cited in US20240366723A1, “COMBINATION THERAPY FOR THE TREATMENT OF ENTERIC NEUROPATHIES” (TRANSFERT PLUS, LIMITED PARTNERSHIP, priority 2021, published 2024).

Settings: literature reports, various models

B1: MANF: Mesencephalic Astrocyte Derived Neurotrophic Factor (protein, UniProt P55145 25-182, looked up)
Mesencephalic …: LRPGDCEVCISYLGRFYQDLKDRDVTFSPATIENELIKFCREARGKENRLCYYIGATDDAATKIINEVSKPLAHHIPVEKICEKLKKKDSQICELKYDKQIDLSTVDLKKLRVKELKKILDDWGETCKGCAEKSDYIRKINELMPKYAPKAASARTDL
Reported neurotrophic activity: MANF has neuroregenerative activity via differentiation

B2: BMP4: Bone morphogenetic protein 4 (protein, UniProt P12644 293-408, looked up)
Bone morphogenetic protein 4: SPKHHSQRARKKNKNCRRHSLYVDFSDVGWNDWIVAPPGYQAFYCHGDCPFPLADHLNSTNHAIVQTLVNSVNSSIPKACCVPTELSAISMLYLDEYDKVVLKNYQEMVVEGCGCR
Reported neurotrophic activity: BMP signaling is necessary for neural crest cell
